Earlier results on one substance are cited in patent US20160296600A1, “Relaxin Prodrugs” (ASCENDIS PHARMA RELAXIN DIVISION A/S, priority 2013, published 2016).

The conditions of this data set: humans, intravenous administration.

For the substance “Relaxin: Mature human relaxin, hormonal peptide of approximately 6000 daltons; A-chain SEQ ID NO:1, B-chain SEQ ID NO:2”, the half-life entry is listed as “less than 10 minutes”.
